This data set has as its system Saccharomyces cerevisiae. The experiment in a line: protein stability index of tFT-peptide fusion (C-terminal peptide) (PSI (0-1 scale)); higher = more stable (slower turnover). The conditions noted are these: temperature: 30 C. As to the method:
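MPS profiling in S. cerevisiae of the yeast C-terminome library: the last 12 aa of each annotated ORF are fused to the C-terminus of a sfGFP-mCherry timer, after a GGGS linker. Cells are FACS-sorted into 8 mCherry/sfGFP bins and deep-sequenced. PSI runs from 0 (unstable) to 1 (stable); wild type and das1Δ backgrounds, two technical replicates each.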

[1] abbreviates: genetic background: das1 deletion.

± gives the standard deviation of the averaged measurements.

Turning to LVEGQTFDADVE [EGD1 C-terminal 12 aa], the protein stability index by setting is: under setting [1], 0.69111 ± 4.7e-05; (genetic background: wild type) 0.671 ± 0.033.

Consider LVLKQRQEQEKQ [GDI1 C-terminal 12 aa], for which the protein stability index is, setting by setting: under setting [1], 0.688 ± 0.025; (genetic background: wild type) 0.717 ± 0.06.

With LVRFIEAEKFVG [SNX3 C-terminal 12 aa], the protein stability index reads like this: under setting [1], 0.7119 ± 0.003; (genetic background: wild type) 0.6912 ± 0.0047.

For the sequence LYDNIRSGNFGI [MSB1 C-terminal 12 aa], the protein stability index reads like this: under setting [1], 0.771 ± 0.008; (genetic background: wild type) 0.6503 ± 0.00092.

For MDNKQQLSSGRT [SNA3 C-terminal 12 aa], the protein stability index is, setting by setting: under setting [1], 0.709 ± 0.016; (genetic background: wild type) 0.686 ± 0.021.

MFKCARQSEFDK [MTG2 C-terminal 12 aa] returned a protein stability index under setting [1] of 0.6881 ± 0.0066 and a protein stability index (genetic background: wild type) of 0.6829 ± 0.0037.

On to MKKLQNKKSSAV [CAB5 C-terminal 12 aa], for which the protein stability index is, setting by setting: under setting [1], 0.695 ± 0.05; (genetic background: wild type) 0.677 ± 0.021.

Turning to MQRVSTQHEKSS [PMA2 C-terminal 12 aa], the protein stability index runs as follows: under setting [1], 0.693 ± 0.024; (genetic background: wild type) 0.711 ± 0.096.

With MQTHYILMKAQW [PPM1 C-terminal 12 aa], the protein stability index was 0.579 ± 0.008 under setting [1] and 0.5353 ± 0.0021 (genetic background: wild type).

With MSSFLSKKENNN [SNT1 C-terminal 12 aa], the protein stability index runs as follows: under setting [1], 0.722 ± 0.024; (genetic background: wild type) 0.6618 ± 0.005.

For MTGTCFMTDLAP [YKL097C C-terminal 12 aa], the protein stability index is, setting by setting: under setting [1], 0.721 ± 0.024; (genetic background: wild type) 0.695 ± 0.021.

Turning to MTLDSWQPLTPK [INP53 C-terminal 12 aa], the protein stability index came out at 0.723 ± 0.016 under setting [1] and 0.712 ± 0.03 (genetic background: wild type).

Take NEEYIEELDLVL [HSH155 C-terminal 12 aa]: the protein stability index is, setting by setting: under setting [1], 0.696 ± 0.0089; (genetic background: wild type) 0.674 ± 0.015.

NFQTHYRDELLQ [REH1 C-terminal 12 aa]: the protein stability index is 0.729 ± 0.054 under setting [1] and 0.584 ± 0.016 (genetic background: wild type).

“NFVSQYRNDEIY [YOR381W-A C-terminal 12 aa]”: the protein stability index is 0.688 ± 0.032 under setting [1] and 0.659 ± 0.023 (genetic background: wild type).

As to NGHVSKKAKVTK [LYS21 C-terminal 12 aa], the protein stability index by setting is: under setting [1], 0.6885 ± 0.0043; (genetic background: wild type) 0.667 ± 0.021.

In the case of NIAPFPFFGKRR [PMD1 C-terminal 12 aa], the protein stability index under setting [1] was determined as 0.6837 ± 0.00075 and the protein stability index (genetic background: wild type) stood at 0.674 ± 0.02.

As to NIEKGVNFVASK [MDH1 C-terminal 12 aa], the protein stability index worked out at 0.6837 ± 0.0049 under setting [1] and 0.677 ± 0.052 (genetic background: wild type).

For the sequence NIGDFSPDLMDS [MSS11 C-terminal 12 aa], the protein stability index by setting is: under setting [1], 0.684 ± 0.011; (genetic background: wild type) 0.713 ± 0.0096.

Turning to NIKALNQSKSHM [SPO77 C-terminal 12 aa], the protein stability index under setting [1] was determined as 0.684 ± 0.022 and the protein stability index (genetic background: wild type) turned out to be 0.6701 ± 0.003.

Sequence NKKPKNKKKGRK [SRP72 C-terminal 12 aa] returned a protein stability index under setting [1] of 0.6842 ± 0.005 and a protein stability index (genetic background: wild type) of 0.646 ± 0.0076.

As for NKRLKKILNNTK [RME1 C-terminal 12 aa], the protein stability index reads like this: under setting [1], 0.702 ± 0.014; (genetic background: wild type) 0.674 ± 0.023.

Regarding NKVEAFKSLYTF [NUP60 C-terminal 12 aa], the protein stability index by setting is: under setting [1], 0.705 ± 0.028; (genetic background: wild type) 0.591 ± 0.013.

For the sequence NLKNGVTLESPE [UBP12 C-terminal 12 aa], the protein stability index reads like this: under setting [1], 0.716 ± 0.01; (genetic background: wild type) 0.6889 ± 0.0028.

On to NLMVADDKVWRV [MCM3 C-terminal 12 aa], for which the protein stability index runs as follows: under setting [1], 0.696 ± 0.017; (genetic background: wild type) 0.7005 ± 0.0019.

With NLVASKQLSTYK [RAV2 C-terminal 12 aa], the protein stability index is, setting by setting: under setting [1], 0.694 ± 0.0082; (genetic background: wild type) 0.641 ± 0.031.

NMLFICLNVPHY [YGL114W C-terminal 12 aa] displayed a protein stability index under setting [1] of 0.6561 ± 0.0045 and a protein stability index (genetic background: wild type) of 0.632 ± 0.007.

NNASEDDRGIRV [STB2 C-terminal 12 aa]: the protein stability index by setting is: under setting [1], 0.6973 ± 0.0012; (genetic background: wild type) 0.685 ± 0.089.

Take NNIKWYLHWKFI [VPR1 C-terminal 12 aa]: the protein stability index by setting is: under setting [1], 0.684 ± 0.033; (genetic background: wild type) 0.168 ± 0.019.

For NNNMESFPEMSP [GLE1 C-terminal 12 aa], the protein stability index was found to be 0.726 ± 0.013 under setting [1] and 0.72 ± 0.017 (genetic background: wild type).

For the sequence NNNNNNNDDDDK [CTK1 C-terminal 12 aa], the protein stability index under setting [1] turned out to be 0.694 ± 0.021 and the protein stability index (genetic background: wild type) is 0.691 ± 0.028.

As for NQAIQYANEFQQ [HOG1 C-terminal 12 aa], the protein stability index runs as follows: under setting [1], 0.701 ± 0.022; (genetic background: wild type) 0.715 ± 0.043.

With NQRKANDNKRRR [RRP17 C-terminal 12 aa], the protein stability index turned out to be 0.7188 ± 0.001 under setting [1] and 0.77 ± 0.058 (genetic background: wild type).

In the case of NQRSFNDKSKRD [CAX4 C-terminal 12 aa], the protein stability index is, setting by setting: under setting [1], 0.692 ± 0.009; (genetic background: wild type) 0.6901 ± 0.0064.

In the case of NSFDGLLVYLSN [CBF2 C-terminal 12 aa], the protein stability index reads like this: under setting [1], 0.6572 ± 0.0033; (genetic background: wild type) 0.6615 ± 0.0065.

As to NSIVKQFKEIFK [AIM41 C-terminal 12 aa], the protein stability index reads like this: under setting [1], 0.709 ± 0.028; (genetic background: wild type) 0.67 ± 0.0096.

In the case of NSSSNESIQVVV [SFK1 C-terminal 12 aa], the protein stability index under setting [1] was 0.706 ± 0.043 and the protein stability index (genetic background: wild type) was found to be 0.696 ± 0.037.

On to NTLRISTVGQEF [PYK2 C-terminal 12 aa], for which the protein stability index came out at 0.7106 ± 0.0029 under setting [1] and 0.707 ± 0.0074 (genetic background: wild type).

As for NTSGQKPNEYNY [APA1 C-terminal 12 aa], the protein stability index was found to be 0.7049 ± 0.0049 under setting [1] and 0.698 ± 0.018 (genetic background: wild type).

Consider NVGVIRPLLDLQ [YGR069W C-terminal 12 aa], for which the protein stability index is, setting by setting: under setting [1], 0.743 ± 0.026; (genetic background: wild type) 0.729 ± 0.015.

Take NVTKLAKERVLF [CPA1 C-terminal 12 aa]: the protein stability index is 0.6847 ± 0.0048 under setting [1] and 0.703 ± 0.055 (genetic background: wild type).

The sequence “NVYRLTLMIFRL [YMR013W-A C-terminal 12 aa]” gave a protein stability index under setting [1] of 0.428 ± 0.016 and a protein stability index (genetic background: wild type) of 0.249 ± 0.0095.

Regarding “NWVRYSSIYYQL [YDR194W-A C-terminal 12 aa]”, the protein stability index is, setting by setting: under setting [1], 0.695 ± 0.013; (genetic background: wild type) 0.14 ± 0.011.

NYPELPRLTFST [RFU1 C-terminal 12 aa]: the protein stability index is, setting by setting: under setting [1], 0.704 ± 0.018; (genetic background: wild type) 0.691 ± 0.0092.

Consider NYRLEEQDVLTW [LYS14 C-terminal 12 aa], for which the protein stability index runs as follows: under setting [1], 0.721 ± 0.037; (genetic background: wild type) 0.693 ± 0.058.

With PAAISGTVPSIF [DIN7 C-terminal 12 aa], the protein stability index by setting is: under setting [1], 0.715 ± 0.021; (genetic background: wild type) 0.677 ± 0.017.

With PAKFGIQFQYST [MDM10 C-terminal 12 aa], the protein stability index by setting is: under setting [1], 0.697 ± 0.021; (genetic background: wild type) 0.662 ± 0.038.

In the case of PCTASITSLISF [YDR269C C-terminal 12 aa], the protein stability index under setting [1] was determined as 0.709 ± 0.012 and the protein stability index (genetic background: wild type) stood at 0.731 ± 0.03.

As to PDEISFLQQFTS [KAP104 C-terminal 12 aa], the protein stability index reads like this: under setting [1], 0.721 ± 0.0076; (genetic background: wild type) 0.676 ± 0.023.

On to PEAEGPTVEEVD [SSA1 C-terminal 12 aa], for which the protein stability index under setting [1] was 0.703 ± 0.02 and the protein stability index (genetic background: wild type) amounted to 0.694 ± 0.019.

In turn, PELSSTVSHNRA [WSC3 C-terminal 12 aa] came in with a protein stability index under setting [1] of 0.693 ± 0.035 and a protein stability index (genetic background: wild type) of 0.783 ± 0.07.

Regarding PEMTRRGRGPRR [RPA49 C-terminal 12 aa], the protein stability index under setting [1] is 0.714 ± 0.022 and the protein stability index (genetic background: wild type) was found to be 0.673 ± 0.033.

For the sequence PFPLLRLSAPFK [OST3 C-terminal 12 aa], the protein stability index is, setting by setting: under setting [1], 0.72 ± 0.0091; (genetic background: wild type) 0.749 ± 0.061.

For PFPLPSTERVIF [ADY2 C-terminal 12 aa], the protein stability index runs as follows: under setting [1], 0.723 ± 0.02; (genetic background: wild type) 0.73 ± 0.023.

Regarding “PHYAGCLEDIIF [YER066C-A C-terminal 12 aa]”, the protein stability index by setting is: under setting [1], 0.719 ± 0.046; (genetic background: wild type) 0.74 ± 0.035.

In turn, PIKEVLLENWDQ [PUS5 C-terminal 12 aa] yielded a protein stability index under setting [1] of 0.715 ± 0.017 and a protein stability index (genetic background: wild type) of 0.683 ± 0.024.

In the case of PIRTPDAKKPKI [BUR2 C-terminal 12 aa], the protein stability index by setting is: under setting [1], 0.715 ± 0.013; (genetic background: wild type) 0.8 ± 0.13.

For PIVHYISDRRTV [ARC15 C-terminal 12 aa], the protein stability index reads like this: under setting [1], 0.682 ± 0.013; (genetic background: wild type) 0.688 ± 0.0093.

As to PKETLHRSDHQG [YPR039W C-terminal 12 aa], the protein stability index worked out at 0.6938 ± 0.0051 under setting [1] and 0.689 ± 0.076 (genetic background: wild type).

In the case of PKFSKPDPLKRD [SAC1 C-terminal 12 aa], the protein stability index reads like this: under setting [1], 0.72 ± 0.01; (genetic background: wild type) 0.6853 ± 0.005.

With PLGEVDLNSFKN [YHP1 C-terminal 12 aa], the protein stability index reads like this: under setting [1], 0.691 ± 0.019; (genetic background: wild type) 0.682 ± 0.034.

Consider PLLELVMELRDR [MOB1 C-terminal 12 aa], for which the protein stability index was found to be 0.726 ± 0.051 under setting [1] and 0.736 ± 0.01 (genetic background: wild type).

Consider PLRLLIRPVGEL [YOR248W C-terminal 12 aa], for which the protein stability index amounted to 0.679 ± 0.008 under setting [1] and 0.673 ± 0.042 (genetic background: wild type).

PLWNQRRDDLFH [NIT2 C-terminal 12 aa] came in with a protein stability index under setting [1] of 0.74 ± 0.042 and a protein stability index (genetic background: wild type) of 0.744 ± 0.055.

PMALFGIFAVAL [AFB1 C-terminal 12 aa] had a protein stability index under setting [1] of 0.5769 ± 0.0038 and a protein stability index (genetic background: wild type) of 0.596 ± 0.0014.

Consider PNVSYIEEKLNQ [MAS1 C-terminal 12 aa], for which the protein stability index amounted to 0.702 ± 0.015 under setting [1] and 0.717 ± 0.011 (genetic background: wild type).

As to PPNTLWHYNFRK [MRPL28 C-terminal 12 aa], the protein stability index runs as follows: under setting [1], 0.751 ± 0.024; (genetic background: wild type) 0.69 ± 0.018.

These data come from the supplement of paper PMC10724198.
